The results in this text go back to US20200165334A1 (FRAUNHOFER GESELLSCHAFT ZUR F RDERUNG DER ANGEWANDTEN …, published 2020).

This experiment deals with T1, murine IL-38 (mouse, UniProt Q8R459 1-152, limits assumed, C-terminally-biotinylated form).
T1 construct: Bacterially expressed in a C-terminally-biotinylated form and used as the antigen for phage selection; also called mouse IL-38; IL1F10
T1 sequence (looked up): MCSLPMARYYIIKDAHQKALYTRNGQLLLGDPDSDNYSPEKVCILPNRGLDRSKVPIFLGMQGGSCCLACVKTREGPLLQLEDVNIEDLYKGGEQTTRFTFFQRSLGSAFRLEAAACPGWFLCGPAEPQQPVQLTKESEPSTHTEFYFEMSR
Description: biolayer interferometry, fitted sensorgrams (association to about 600 s, dissociation to 1800 s); concentrations of the traces not given. A general note: Biolayer interferometry detects binding as a change in optical thickness at a sensor tip.

For orientation: Kd means a measure of binding affinity in units of concentration. Read a high Kd as weaker binding.

B1: Fab H06 (Fab, V domains shown)
VH: EVQLVESGGGLVQPGGSLRLSCAASGFSLSYSYIHWVRQAPGKGLEWVASISPSYSYTSYADSVKGRFTISADTSKNTAYLQMNSLRAEDTAVYYCARAPVPHVWPYSGFDYWGQGTLVTVSS
VL: DIQMTQSPSSLSASVGDRVTITCRASQSVSSAVAWYQQKPGKAPKLLIYSASSLYSGVPSRFSGSRSGTDFTLTISSLQPEDFATYYCQQAYWSPITFGQGTKVEIK
notes: the constant domains of the Fab are not
The molecule B1 displayed a Kd of 0.069 µM.

B2: Fab E04 (Fab, V domains shown)
VH: EVQLVESGGGLVQPGGSLRLSCAASGFSFSSSSIHWVRQAPGKGLEWVASISPYYSYTSYADSVKGRFTISADTSKNTAYLQMNSLRAEDTAVYYCARTVRGSKKPYFSGWAMDYWGQGTLVTVSS
VL: DIQMTQSPSSLSASVGDRVTITCRASQSYYSYVAWYQQKPGKAPKLLIYSASSLYSGVPSRFSGSRSGTDFTLTISSLQPEDFATYYCQQVFAPITFGQGTKVEIK
notes: as for B1
B2 registered a Kd of 0.0067 µM.
